This is an account of results in patent publication US20260092093A1 (TJ BIOPHARMA SHANGHAI, published 2026).

Where a chain is given by its changes, count along the chain named.

Experiment [1] deals with T1, hIL-18BP-hFc (human, UniProt O95998 31-194, limits assumed).
T1 sequence (looked up): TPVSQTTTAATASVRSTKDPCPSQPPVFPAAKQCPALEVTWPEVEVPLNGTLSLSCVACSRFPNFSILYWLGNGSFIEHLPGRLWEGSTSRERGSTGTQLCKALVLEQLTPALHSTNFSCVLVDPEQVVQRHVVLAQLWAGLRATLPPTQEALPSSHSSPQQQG
The experiment is described as follows: cell-based or functional assay.

Experiment [2] concerns the target T2, hIL-18 receptor (hIL-18Rα and hIL-18Rβ) (human, UniProt Q13478 19-541; O95256 20-599).
T2 sequence (looked up) 1: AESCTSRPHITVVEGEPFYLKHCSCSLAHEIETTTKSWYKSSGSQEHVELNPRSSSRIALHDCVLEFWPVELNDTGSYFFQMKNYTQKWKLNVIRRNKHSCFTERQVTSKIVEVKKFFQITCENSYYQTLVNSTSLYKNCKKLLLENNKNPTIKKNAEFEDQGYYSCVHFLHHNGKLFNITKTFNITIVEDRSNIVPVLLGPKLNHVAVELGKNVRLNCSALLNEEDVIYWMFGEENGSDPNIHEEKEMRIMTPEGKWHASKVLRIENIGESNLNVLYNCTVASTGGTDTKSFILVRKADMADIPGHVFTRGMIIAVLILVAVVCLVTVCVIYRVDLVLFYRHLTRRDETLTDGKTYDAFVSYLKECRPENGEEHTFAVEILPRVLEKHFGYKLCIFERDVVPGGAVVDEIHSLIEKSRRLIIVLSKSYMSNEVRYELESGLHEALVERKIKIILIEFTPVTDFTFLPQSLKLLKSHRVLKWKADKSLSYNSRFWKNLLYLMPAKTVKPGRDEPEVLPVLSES
T2 sequence (looked up) 2: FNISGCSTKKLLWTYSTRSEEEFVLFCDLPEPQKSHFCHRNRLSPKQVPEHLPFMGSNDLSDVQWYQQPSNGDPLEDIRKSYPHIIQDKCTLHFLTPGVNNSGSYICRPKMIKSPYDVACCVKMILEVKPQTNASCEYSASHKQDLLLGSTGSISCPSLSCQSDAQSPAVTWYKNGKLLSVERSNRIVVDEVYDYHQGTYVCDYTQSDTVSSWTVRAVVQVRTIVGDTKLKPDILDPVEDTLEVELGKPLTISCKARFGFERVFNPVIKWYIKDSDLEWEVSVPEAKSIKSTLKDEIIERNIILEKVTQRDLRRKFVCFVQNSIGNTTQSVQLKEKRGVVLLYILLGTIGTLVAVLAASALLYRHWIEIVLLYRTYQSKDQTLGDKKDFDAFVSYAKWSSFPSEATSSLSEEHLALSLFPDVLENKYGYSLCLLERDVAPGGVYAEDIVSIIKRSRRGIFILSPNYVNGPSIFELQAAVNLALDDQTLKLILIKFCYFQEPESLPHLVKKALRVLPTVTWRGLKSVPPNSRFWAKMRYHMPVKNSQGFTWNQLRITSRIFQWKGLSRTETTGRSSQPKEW
Nature of the experiment: cell-based or functional assay.

B1: IL-18 variant polypeptide M38 (ligand)
chain: YFPKLSSKLSVIRNLNDQVLFIDQGNRPLFEDMTDSDCRDNAPRTIFIISMYKWSGARGMAVTISVKCEKISTLSCENKIISFKEMNPPDVIKDTKSDIIFFQISVPGHDNKMQFESSSYEGYFLACEKERDLFKLILKKEDELGDRSIMFTVQNED
As to B1, in experiment [1], the “EC50 (nM) in the Presence of 1 µg/mL hIL-18BP-hFc, hIL-18 reporter assay” value (shortened to “EC50 (nM) in the Presence”) came out at 1.2 nM and the “EC50 Fold Change (+BP/-BP), hIL-18 reporter assay” value (“EC50 Fold Change (+BP/-BP)” for short) is 2.11 fold. Also, the “EC50 (nM), hIL-18 reporter assay” value in experiment [2] turned out to be 0.57 nM.

B2: IL-18 variant polypeptide LM2 (ligand)
chain: B1 chain with S6R, W54L, A57S, I104R
As to B2, in experiment [1], the “EC50 (nM) in the Presence” value was determined as 0.055 nM and the “EC50 Fold Change (+BP/-BP)” value was 0.5 fold. In experiment [2], the “EC50 (nM), hIL-18 reporter assay” value is 0.11 nM.

B3: IL-18 variant polypeptide LM5 (ligand)
chain: B1 chain with P3G, S6R, G56S, A57Q, V91N, I104R
For B3, in experiment [1], the “EC50 (nM) in the Presence” value worked out at 0.12 nM and the “EC50 Fold Change (+BP/-BP)” value amounted to 0.92 fold. For the same molecule, the “EC50 (nM), hIL-18 reporter assay” value in experiment [2] came out at 0.13 nM.

B4: IL-18 variant polypeptide LM1 (ligand)
chain: B1 chain with S6K, W54G, V91N, I104R
Consider B4, for which, in experiment [1], the “EC50 (nM) in the Presence” value is 0.11 nM and the “EC50 Fold Change (+BP/-BP)” value was 1.45 fold. Moreover, the “EC50 (nM), hIL-18 reporter assay” value in experiment [2] was 0.076 nM.

B5: IL-18 variant polypeptide MM6 (ligand)
chain: B1 chain with P3A, S6Y, W54R, G56S, A57L, V91A, I104R
For the molecule B5, in experiment [1], the “EC50 (nM) in the Presence” value came to 1.5 nM and the “EC50 Fold Change (+BP/-BP)” value stood at 1.5 fold. The “EC50 (nM), hIL-18 reporter assay” value in experiment [2] came to 1 nM.

B6: IL-18 variant polypeptide MM4 (ligand)
chain: B1 chain with S6R, W54L, G56T, A57I, V91G, I104R
For B6, in experiment [1], the “EC50 (nM) in the Presence” value stood at 0.43 nM and the “EC50 Fold Change (+BP/-BP)” value came to 3.31 fold. Also, the “EC50 (nM), hIL-18 reporter assay” value in experiment [2] was 0.13 nM.

B7: IL-18 variant polypeptide LM3 (ligand)
chain: B1 chain with S6R, V11I, W54G, V91G, I104R
Regarding B7, in experiment [1], the “EC50 (nM) in the Presence” value is 0.069 nM and the “EC50 Fold Change (+BP/-BP)” value worked out at 1.33 fold. Also, in experiment [2], the “EC50 (nM), hIL-18 reporter assay” value was determined as 0.052 nM.

B8: IL-18 variant polypeptide M40 (ligand)
chain: B1 chain with P3D, S6K, W54P, G56S, A57W, V91W, I104R
On to B8, for which, in experiment [1], the “EC50 (nM) in the Presence” value worked out at 0.16 nM and the “EC50 Fold Change (+BP/-BP)” value came out at 1.33 fold. Besides, the “EC50 (nM), hIL-18 reporter assay” value in experiment [2] was 0.12 nM.

B9: IL-18 variant polypeptide MM1 (ligand)
chain: B1 chain with S6K, W54L, G56T, A57Q, I104R
Consider B9, for which, in experiment [1], the “EC50 (nM) in the Presence” value stood at 0.81 nM and the “EC50 Fold Change (+BP/-BP)” value stood at 0.84 fold. In addition, the “EC50 (nM), hIL-18 reporter assay” value in experiment [2] was found to be 0.97 nM.

B10: IL-18 variant polypeptide M39 (ligand)
chain: B1 chain with S6R, G56P, A57G, I104L
Consider B10, for which, in experiment [1], the “EC50 (nM) in the Presence” value is 0.44 nM and the “EC50 Fold Change (+BP/-BP)” value turned out to be 1.47 fold. Also, the “EC50 (nM), hIL-18 reporter assay” value in experiment [2] was determined as 0.3 nM.

B11: IL-18 variant polypeptide MM2 (ligand)
chain: B1 chain with P3A, S6Y, W54R, G56S, A57L, V91G, I104R
On to B11, for which, in experiment [1], the “EC50 (nM) in the Presence” value stood at 2.24 nM and the “EC50 Fold Change (+BP/-BP)” value is 2.41 fold. Also, the “EC50 (nM), hIL-18 reporter assay” value in experiment [2] was determined as 0.93 nM.

B12: IL-18 variant polypeptide LM4 (ligand)
chain: B1 chain with S6K, W54H, G56Y, A57S, V91N, I104R
In the case of B12, in experiment [1], the “EC50 (nM) in the Presence” value was 0.17 nM and the “EC50 Fold Change (+BP/-BP)” value amounted to 1.06 fold. For the same molecule, in experiment [2], the “EC50 (nM), hIL-18 reporter assay” value worked out at 0.16 nM.
